Results on nine compounds are retold here after patent US20050164929A1, “Methods of preventing and treating inflammatory bowel disease” (LUPINE LOGIC, INC., priority 2000, published 2005).

Values joined by “and” are separate entries in the source; they are usually repeats but may differ in a detail not shown here. Equal values may be shown once. Marks after values point to notes of the source that are not given here. Residues, ends and D or L forms follow the SMILES beside them. *: point of attachment. Cbz = O=C(OCc1ccccc1)*

In series [1] the test system is COX-2 induction in Caco-2 cells. Kind of series: COX-2 induction by CG53135 in presence of proteosome inhibitor. The class given is cell-based, human. The procedure:
FIG. 18. Effect of NFkB on activation of CG53135 and stimulation of COX-2 in intestinal epithelial cells. NFkB promoter activity was assayed in HT-29 and Caco2 cell lines in the presence of CG53135-01 E. coli purified product.
ITF promoter activity in HT-29 cells was assayed. […] Thus NF-kB may not have a role inducing COX-2 expression in the presence of CG53135.

The next series relates to endothelial cells. Kind of series: Proliferation summary for variants. It is filed as cell-based. The conditions noted are these: in vitro. The procedure: (§1) Experiments were performed to evaluate the proliferative response of representative cell types to CG53135, e.g., a full-length tagged variant (CG53135-01), a deletion variant (CG53135-02), and a full-length codon-optimized untagged variant (CG53135-05).
(§2) CG53135-02 (batch 1 and 13) was also used in these experiments. Protein was expressed in E. coli, BLR (DE3) (Novagen), transformed with the deletion variant CG53135-02 inserted into a pET24a vector (Novagen). A research cell bank (RCB) was produced and cell paste containing CG53135-02 was produced by fermentation of cells originating from the RCB. Cell membranes were disrupted by high-pressure homogenization, and lysate was clarified by centrifugation. CG53135-02 was purified by ion exchange chromatography. The final protein fraction was dialyzed against the formulation buffer (100 mM citrate, 1 mM ethylenediaminetetraacetic acid (EDTA), and 1 M L-arginine).
(§3) CG53135-05, DEV10, which were also used in these experiments, was prepared by Cambrex Biosciences (Hopkinton, Mass.) according to Process 1 as described in Section 6.18.1, infra.
(§4) BrdU Incorporation: proliferative activity was measured by treatment of serum-starved cultured cells with a given agent and measurement of BrdU incorporation during DNA synthesis. Cells were cultured in respective manufacturer recommended basal growth medium supplemented with 10% fetal bovine serum or 10% calf serum as per manufacturer recommendations. Cells were grown in 96-well plates to confluence at 37° C. in 10% CO2/air (to subconfluence at 5% CO2 for dedifferentiated chondrocytes and NHOst). Cells were then starved in respective basal growth medium for 24-72 hours. CG53135 protein purified from E. coli or pCEP4/Sec or pCEP4/Sec-FGF 20× enriched conditioned medium was added (10 μL/100 μL of culture) for 18 hours. BrdU (10 μM final concentration) was then added and incubated with the cells for 5 hours. BrdU incorporation was assayed according to the manufacturer's specifications (Roche Molecular Biochemicals, Indianapolis, Ind.).
(§5) The above described experiments were also performed using CG53135-02 and CG53135-05 protein products, and the results are summarized in the Conclusion section below.

The test system of series [2] is mesenchymal and epithelial cells. The series can be described thus: Proliferation summary for variants. The class given is cell-based. The settings on record: in vitro. The procedure:
as §1, §2, §3, §4, §5

Series [3] relates to NIH 3T3 murine embryonic fibroblast cells. Kind of series: BrdU incorporation bioassay of RP-HPLC peak fractions. The class given is cell-based, mouse. The conditions noted are these: for PI200: concentration giving BrdU incorporation at 2 times the background, serum-starved NIH 3T3, 18 hours; for induction of DNA synthesis / activity in proliferation assays: BrdU incorporation. The procedure: The biological activity of CG53135-05 related species collected from the 4 peaks identified by LC and MS was measured by treatment of serum-starved cultured NIH 3T3 murine embryonic fibroblast cells with various doses of the isolated CG53135-05 related species and measurement of incorporation of bromodeoxyuridine (BrdU) during DNA synthesis. For this assay, cells were cultured in Dulbecco's modified Eagle's medium supplemented with 10% fetal bovine serum. Cells were grown in 96-well plates to confluence at 37° C. in 10% CO2/air and then starved in Dulbecco's modified Eagle's medium for 24-72 hours. CG53135-05-related species were added and incubated for 18 hours at 37° C. in 10% CO2/air. BrdU ([…]) was added and incubated with the cells for 2 hours at 37° C. in 10% CO2/air. Incorporation of BrdU was measured by enzyme-linked immunosorbent assay according to the manufacturer's specifications (Roche Molecular Biochemicals, Indianapolis, Ind.).
Peak 4 was not included in this assay since insufficient material was collected (Peak 4 is less than 3% of the total peak area for CG53135-05).
A general note: Incorporation of labelled thymidine or its analogues reports DNA synthesis.

A further series deals with NIH 3T3 cells. Kind of series: BrdU incorporation, truncated vs full length FGF-20 conditioned medium. It is filed as cell-based, mouse. The conditions noted are these: 10 ng/mL. The protocol:
NIH 3T3 mouse fibroblasts were serum-starved, incubated with the indicated factor for 18 hours, and analyzed by a BrdU incorporation assay.
A vector expressing amino acids 24-211 of FGF-20, referred to as CG53135-17 (SEQ ID NOs:31 and 32), was prepared. The incorporation of BrdU by NIH 3T3 cells treated with conditioned medium obtained using the vector incorporating this truncated form was compared to the incorporation in response to treatment with conditioned medium using a vector encoding full length FGF-20. This experiment was carried out as described above.

In series [4] the test system is soluble FGF receptors (FGFRs). The series can be described thus: Receptor binding specificity: control growth factors with soluble FGFRs. The class given is cell-based. The conditions noted are these: all soluble FGFRs under analysis. The protocol: NIH 3T3 cells were serum-starved, incubated with the indicated growth factor (square=PDGF-BB; triangle=aFGF; circle=FGF-CX) either alone or together with the indicated soluble FGFR, and analyzed by a BrdU incorporation assay. Experiments were performed in triplicate and are represented as the percent BrdU increase in incorporation of BrdU relative to cells receiving the growth factor alone.
To determine the receptor binding specificity of FGF-20, we examined the effect of soluble FGF receptors (FGFRs) on the induction of DNA synthesis in NIH 3T3 cells by recombinant FGF-20. Four receptors have been identified to date (Klint P and Claesson-Welsh L. Front. Biosci., 4: 165-177, 1999; Xu X, et al. Cell Tissue Res., 296: 33-43, 1999). Soluble receptors for FGFR1β(IIIc), FGFR2a(IIIb), FGFR2β(IIIb), FGFR2a(IIIc), FGFR3a(IIIc) and FGFR4 were utilized.

Series [5] can be described thus: Turbidity (aggregates) after ultrafiltration/diafiltration. It is filed as physicochemical. The procedure: The experiment was conducted by performing the ultrafiltration/diafiltration at 2.5 mg/mL CG53135-05 in 0.2M arginine and 0.05 M sodium phosphate buffer at pH 7.0. After exchanging with 7 volumes of the final buffer (0.5M arginine and 0.05 M sodium phosphate buffer at pH 7.0), the diafiltrate is concentrated to ˜20 mg/mL. The diafiltrate is then diluted with the final buffer to ˜12.5 mg/mL and lyophilized. Polysorbate 80 is added either before or after the diafiltration to a final concentration of 0.01%.
All formulation contains 0.5 M arginine, 0.05 M sodium phosphate monobasic, and 0.01% polysorbate 80.

Series [6] can be described thus: Solubility of protein in formulation buffers. The class given is physicochemical. The settings on record: for Solubility of Process 2 protein, Arginine Sulfate vs Arginine Phosphate: Batches #K, #J. The protocol: Four unexpected properties of CG53135 were discovered and used to develop the new formulation: (1) high concentration of arginine, >0.4 M, increases the solubility to >30 mg/mL; (2) the use of sulfate salt of arginine increases the solubility by at least 2-6 folds; (3) the optimal concentration of sodium phosphate as a buffering salt is 50 mM, with a solubility of at least 1-2 fold increase in comparison with concentrations at 25, 75, and 100 mM; and (4) adding a surfactant during the diafiltration/ultrafiltration step minimizes the formation of aggregates. In development the lyophilized formulation, each component of the new formulation was evaluated for solubility individually. CG53135-05 was precipitated using the precipitate buffer (50 mM NaPi, 5 mM EDTA, 1 M L-Arginine HCl, 2.5 M (NH4)2SO4). The precipitate was washed with 25 mM sodium phosphate buffer at pH 6.5 to remove the residual arginine and ammonium sulfate. The following are examples of data.

For `CC(C)C[C@@H](C=O)NC(=O)[C@H](CC(C)C)NC(=O)[C@H](CC(C)C)NC(=O)OCc1ccccc1` [MG132] (Cbz-Leu-Leu-Leu-aldehyde), the “block of COX-2 induction by CG53135” value in series [1] is on record as “does not block COX-2 induction”.
With “CG53135-02: Codon optimized, amino acids 2-54 of SEQ ID NO: 2 removed; SEQ ID NOs 3 and 4”, the “proliferation of endothelial cells” value in the series with endothelial cells is listed as “induces proliferation”. Further, in series [2], the “proliferation of mesenchymal and epithelial cells” value is “induce proliferation”.
With “CG53135-05 (DEV 10): Process 1 reference standard of CG53135-05 E. coli purified product”, in series [3], the PI200 is 1.0 ng/mL.
In the case of “CG53135-17: CG53135-05 minus first 23 amino acids at the N-terminus (amino acids 24-211 of FGF-20)”, the “activity (BrdU incorporation) at lowest concentration tested” value in the series with NIH 3T3 cells was “retains high activity”.
PDGF-BB: control growth factor: in series [4], the “effect of soluble receptor reagents on induction of DNA synthesis by control factor” value was “None of the soluble receptor reagents interfered”.
For “Peak 2: RP-HPLC peak at 27.3 min: CG53135-13 (residues 3-211)”, in series [3], the “induction of DNA synthesis / activity in proliferation assays” value is “dose-dependent manner” and the PI200 amounted to 11 ng/mL.
For “Peak 3: RP-HPLC peak at 28.5 min: CG53135-05 (residues 1-211)”, in that order: “dose-dependent manner” and 8.6 ng/mL.
For the compound “Process 2 protein: protein product (CG53135-05) produced by the improved production process, Process 2”, the Turbidity in series [5] (Polysorbate added during ultrafiltration/diafiltration: No, 13.0 mg/mL) was determined as 4.6 NTU; in series [5] (Polysorbate added during ultrafiltration/diafiltration: Yes, 12.5 mg/mL), 20.9 NTU. Also, the “Solubility of Process 2 protein” value in series [6] (Arginine 0.05 M, Batches #1-#3) is 0.7 mg/mL and 0.6 mg/mL and 0.5 mg/mL; in series [6] (Arginine 0.15 M, Batches #1-#3), 2.2 mg/mL and 1.6 mg/mL; in series [6] (Arginine 0.20 M, Batches #1-#3), 3.0 mg/mL and 4.7 mg/mL and 4.3 mg/mL; in series [6] (Arginine 0.30 M, Batch #4), 5.8 mg/mL; in series [6] (Arginine 0.35 M, Batch #4), 10.1 mg/mL; in series [6] (Arginine 0.40 M, Batch #4) it was 9.8 mg/mL. In addition, the “Solubility of Process 2 protein” value in series [6] (Arginine 0.45 M, Batch #4) was 32.3 mg/mL; in series [6] (Arginine 0.50 M, Batch #4 (not sufficient protein to be dissolved) and #5), 23.8* mg/mL and 37 mg/mL; in series [6] (sodium phosphate monobasic 25 mM, 0.2 M arginine, Batches #A-#E) it was 4.01 mg/mL and 2.4 mg/mL and 2.6 mg/mL and 3.59 mg/mL; in series [6] (sodium phosphate monobasic 50 mM, 0.2 M arginine, Batches #A-#E), 5.47 mg/mL and 4.7 mg/mL and 3.3 mg/mL and 4.3 mg/mL and 4.81 mg/mL; in series [6] (sodium phosphate monobasic 75 mM, 0.2 M arginine, Batches #A-#E), 4.06 mg/mL and 2.5 mg/mL and 2.6 mg/mL and 3.0 mg/mL and 2.38 mg/mL; in series [6] (sodium phosphate monobasic 100 mM, 0.2 M arginine, Batches #A-#E), 3.78 mg/mL and 2.8 mg/mL and 2.4 mg/mL and 2.9 mg/mL and 2.47 mg/mL. Further, the “Solubility of Process 2 protein, Arginine Sulfate vs Arginine Phosphate” value is 4400 µg/mL and 2300 µg/mL in series [6] (first formulation line: 50 mM sodium phosphate monobasic and 0.15 M Arginine at pH 7); 6500 µg/mL and 5200 µg/mL in series [6] (second formulation line: 50 mM sodium phosphate monobasic and 0.15 M Arginine at pH 7).
Turning to “aFGF: acidic FGF, a factor known to interact with all of the FGFRs under analysis”, the “effect of soluble receptor reagents on induction of DNA synthesis by control factor” value in series [4] is “inhibit the induction of DNA synthesis”.
